According to US20170137467A1 (CHROMOTEK, published 2017):
Positions count from the first letter of the chain named. Each block holds one binder with its values, some of them ahead of it. Square brackets hold non-standard residues; d marks the D form. GABA = NCCCC(=O)O

How the values were obtained:
Assay in all cases: positional peptide library pulldown on immobilised Nb, LC-MS of supernatant; signal ratio to control GFP-Nb (1 = not captured, near 0 = captured)
BC2T Q11C(Abu) = target: T1, BC2T Q11C(Abu) (SMILES …)
T1 construct: positional scanning library member
T1 peptide: Ac-PDRKAAVSHW[GABA]Q-NH2
Outline: (§1)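 Unbound peptide left in supernatant after 1 h pulldown in PBS/0.01% CHAPS measured by reversed-phase LC-MS (8–30% eluent B gradient, 20 min).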

BC2T S8T = target: T2, BC2T S8T
T2 construct: positional scanning library member
T2 peptide: Ac-PDRKAAVTHWQQ-NH2
Outline: as §1

BC2T S8(I/L1) = target: T3, BC2T S8(I/L1) (N-terminal acetyl; C-terminal amide)
T3 construct: positional scanning library member; I or L not resolved
Outline: as §1

BC2T S8N = target: T4, BC2T S8N
T4 construct: positional scanning library member
T4 peptide: Ac-PDRKAAVNHWQQ-NH2
Outline: as §1

BC2T H9N = target: T5, BC2T H9N
T5 construct: positional scanning library member
T5 peptide: Ac-PDRKAAVSNWQQ-NH2
Outline: as §1

BC2T Q11Y = target: T6, BC2T Q11Y
T6 construct: positional scanning library member
T6 peptide: Ac-PDRKAAVSHWYQ-NH2
Outline: as §1

BC2T H9V = target: T7, BC2T H9V
T7 construct: positional scanning library member
T7 peptide: Ac-PDRKAAVSVWQQ-NH2
Outline: as §1

BC2T H9T = target: T8, BC2T H9T
T8 construct: positional scanning library member
T8 peptide: Ac-PDRKAAVSTWQQ-NH2
Outline: as §1

BC2T Q12W = target: T9, BC2T Q12W
T9 construct: positional scanning library member
T9 peptide: Ac-PDRKAAVSHWQW-NH2
Outline: as §1

BC2T Q11S = target: T10, BC2T Q11S
T10 construct: positional scanning library member
T10 peptide: Ac-PDRKAAVSHWSQ-NH2
Outline: as §1

BC2T H9A = target: T11, BC2T H9A
T11 construct: positional scanning library member
T11 peptide: Ac-PDRKAAVSAWQQ-NH2
Outline: as §1

BC2T Q12N = target: T12, BC2T Q12N
T12 construct: positional scanning library member
T12 peptide: Ac-PDRKAAVSHWQN-NH2
Outline: as §1

BC2T W10C(Abu) = target: T13, BC2T W10C(Abu) (SMILES …)
T13 construct: positional scanning library member
T13 peptide: Ac-PDRKAAVSH[GABA]QQ-NH2
Outline: as §1

BC2T Q12S = target: T14, BC2T Q12S
T14 construct: positional scanning library member
T14 peptide: Ac-PDRKAAVSHWQS-NH2
Outline: as §1

BC2T Q11M = target: T15, BC2T Q11M
T15 construct: positional scanning library member
T15 peptide: Ac-PDRKAAVSHWMQ-NH2
Outline: as §1

BC2T W10F = target: T16, BC2T W10F
T16 construct: positional scanning library member
T16 peptide: Ac-PDRKAAVSHFQQ-NH2
Outline: as §1

BC2T W10T = target: T17, BC2T W10T
T17 construct: positional scanning library member
T17 peptide: Ac-PDRKAAVSHTQQ-NH2
Outline: as §1

BC2T W10M = target: T18, BC2T W10M
T18 construct: positional scanning library member
T18 peptide: Ac-PDRKAAVSHMQQ-NH2
Outline: as §1

BC2T S8F = target: T19, BC2T S8F
T19 construct: positional scanning library member
T19 peptide: Ac-PDRKAAVFHWQQ-NH2
Outline: as §1

BC2T S8W = target: T20, BC2T S8W
T20 construct: positional scanning library member
T20 peptide: Ac-PDRKAAVWHWQQ-NH2
Outline: as §1

BC2T W10A = target: T21, BC2T W10A
T21 construct: positional scanning library member
T21 peptide: Ac-PDRKAAVSHAQQ-NH2
Outline: as §1

B1: BC2 nanobody (VHH)
VHH: QVQLVESGGGLVQPGGSLTLSCTASGFTLDHYDIGWFRQAPGKEREGVSCINNSDDDTYYADSVKGRFTIFMDNAKDTVYLQMNSLKPEDTAIYYCAEARGCKRGRYEYDFWGQGTQVTVSS
notes: immobilised on beads in this assay; also called BC2-Nb; BC2 nanotrap (immobilised)
ratio (BC2T Q11C(Abu)): 0.1
ratio (BC2T S8T): 0.1
ratio (BC2T S8(I/L1)): 0.4
ratio (BC2T S8N): 0.2
ratio (BC2T H9N): 0.1
ratio (BC2T Q11Y): 0
ratio (BC2T H9V): 0.2
ratio (BC2T H9T): 0.2
ratio (BC2T Q12W): 0.1
ratio (BC2T Q11S): 0.1
ratio (BC2T H9A): 0.2
ratio (BC2T Q12N): 0.1
ratio (BC2T W10C(Abu)): 1
ratio (BC2T Q12S): 0.1
ratio (BC2T Q11M): 0.1
ratio (BC2T W10F): 0.9
ratio (BC2T W10T): 1
ratio (BC2T W10M): 1
ratio (BC2T S8F): 0.7
ratio (BC2T S8W): 0.6
ratio (BC2T W10A): 1

ratio (BC2T Q11C(Abu)): 0.3
ratio (BC2T S8T): 0.2
ratio (BC2T S8(I/L1)): 0.6
ratio (BC2T S8N): 0.7
ratio (BC2T H9N): 0.3
ratio (BC2T Q11Y): 0.1
ratio (BC2T H9V): 0.6
ratio (BC2T H9T): 0.5
ratio (BC2T Q12W): 0.3
ratio (BC2T Q11S): 0.2
ratio (BC2T H9A): 0.5
ratio (BC2T Q12N): 0.2
ratio (BC2T W10C(Abu)): 1
ratio (BC2T Q12S): 0.2
ratio (BC2T Q11M): 0.3
ratio (BC2T W10F): 1.1
ratio (BC2T W10T): 1
ratio (BC2T W10M): 1.1
ratio (BC2T S8F): 0.9
ratio (BC2T S8W): 0.9
ratio (BC2T W10A): 1
B2: BC2-NbR106S (VHH)
VHH: B1 VHH with R106S
notes: headlock mutant of BC2-Nb; immobilised on beads in this assay
